Dwell time and stoichiometry N data for two substances are collected here from publication PMC6697678.

The target of the assay is recombinant human soluble FcγRIIIa glycoprotein with a C-terminal hexahistidine tag (N-glycosylation sites kept at Asn45 and Asn162 only) (human). Put plainly: high-speed atomic force microscopy (HS-AFM), bound-state dwell time.

The stoichiometry N is the number of molecules, sites or subunits per partner or assembly.

For “rituximab, anti-CD20 mouse/human-chimeric IgG1 (G1m17,1; Km3) (antibody)”, the dwell time came to 1 s and the stoichiometry N worked out at 1.
In the same order, the values of “trastuzumab, anti-HER2 humanized IgG1 (G1m17,1; Km3) (antibody)” are 1 s and 1.
